Assay [1] has as its system a wide range of different PDZ domains. The conditions noted are these: cited from earlier work.
The target in assay [2] is T1, Human Scribble (SCRIB) PDZ3 domain (1002-1094) (human, UniProt Q14160 1002-1094).
T1 sequence (looked up): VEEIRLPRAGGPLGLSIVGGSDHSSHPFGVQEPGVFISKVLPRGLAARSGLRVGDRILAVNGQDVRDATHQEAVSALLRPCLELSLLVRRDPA
Description: ITC. The conditions noted are these: both partners purified.

“RSWFETWV [Superpeptide, used as a positive control]”: the “affinity towards PDZ domains, in words” value in assay [1] is listed as “affinity towards a wide range of different PDZ domains”.
Regarding LRLESSII [TBEV NS5_CTN peptide (C-terminal PBM of NS5)], in assay [2], the Kd came to 18.4 µM, the dH was -1.1 kcal/mol and the “stoichiometry N” value turned out to be 1.

As a reminder, the Kd is the constant that tells how readily two partners part at equilibrium. Broadly, the stoichiometry N is a count of units in the complex or per binding partner.

Source of the values: paper PMC9317960 (Biochemical Journal, 2022).
